Patent US20090202508A1, “NEGATIVE REGULATION OF HYPOXIA INDUCIBLE FACTOR 1 BY OS-9” (THE JOHNS HOPKINS UNIVERSITY, priority 2004, published 2009)

Experiments:
HIF-1 = assay: HIF-1-dependent p2.1 luciferase reporter assay; assay type: cell-based, human
Procedure: (§1) 293 or Hep3B cells were seeded onto 24-well plates at 8×10^4 cells per well of a 24-well plate. The following day, the cells were transfected with plasmid DNAs using Fugene-6 (Roche) for 293 and Lipofectamine Plus (Invitrogen) for Hep3B cells. After 24 h, the cells were exposed to 20% or 1% O2 for 24 h. Cells were lysed, and the luciferase activities were determined by multi-well luminescence reader (PerkinElmer), using the Dual-Luciferase Reporter Assay System (Promega). For p2.1 reporter assay, cells were co-transfected with 15 ng of control reporter pSV-Renilla, 135 ng of HIF-1 reporter p2.1, and expression vector encoding HA-OS-9, HIF-1α, or empty vector. Unless indicated otherwise, 200 ng of HIF-1α, 400 ng of HA-OS-9, 1 ng of PHD2, or 1 ng of HIF-1α triple mutant P402A/P564A/N803A (HIF-1α TM) expression vector was used for co-transfection. For pGalA reporter assays, Hep3B cells were co-transfected with 12.5 ng of pSV-Renilla, reporter 200 ng of pG5ElbLuc, 100 ng of expression vector encoding the GAL4 DNA-binding domain alone or fused to HIF-1α residues 531-826 (Jiang et al. 1997) and empty vector or vector encoding HA-OS-9. For immunoblot assays, 293 cells were seeded at 3×10^6 cells per 10-cm plate. The following day, the cells were co-transfected with expression vectors using Fugene-6. After 24 h, the cells were exposed to 20% or 1% O2 with or without MG132 (10 μM) for 8 h and lysed in 200 μl of lysis buffer containing 50 mM Tris-Cl (pH 8.0), 150 mM NaCl, 5 mM EDTA, 0.1% SDS, 1% NP-40, 0.5% sodium deoxycholate, Complete protease inhibitor cocktail (Roche), sodium orthovanadate, and sodium vanadate (Sigma).

HIF-1α [1] = target: HIF-1α (Homo sapiens, UniProt Q16665); assay: In vitro interaction (GST pull-down) assay of OS-9 with GST-HIF-1α fusion proteins; assay type: binding; set-up: made in house; host or cells: E. coli BL21-Gold(DE3)pLysS (GST fusion); rabbit reticulocyte lysate TNT T7 (HA-OS-9); conditions: increasing amounts of in vitro-translated OS-9, desferrioxamine present; FIG. 6C
Procedure: (§2) To prepare GST fusion proteins, E. coli BL21-Gold(DE3)pLysS (Stratagene) was transformed with a pGEX expression vector and treated for 4 h with 0.5 mM isopropyl-D-thiogalactoside. Pelleted cells were lysed by sonication in PBS containing 1% Triton X-100 and Complete protease inhibitor cocktail (Roche). After centrifugation, supernatants were applied to glutathione-Sepharose 4B beads (Amersham Pharmiacia Biotech). GST fusion proteins were eluted with 10 mM reduced glutathione in 50 mM Tris-HCl (pH 8.0) and stored at −80° C. The concentration and purity of eluates were determined by the Bradford method and by SDS-PAGE. [^35S]methionine-labeled proteins were generated in reticulocyte lysates with plasmids encoding HA-OS-9 or FLAG-VHL using the TNT T7 coupled transcription/translation system (Promega). Ten μl of in vitro-translated ^35S-labeled protein was mixed with 4 μg of GST or GST-HIF-1α fusion protein (Mahon et al. 2001) in a final volume of 200 μof PBS-T binding buffer (Dulbecco's PBS [pH 7.4], 0.1% Tween-20). The binding reaction was performed at 4° C. for 2 h with rotation followed by the addition of […] pre-washed glutathione-Sepharose 4B beads. After 30 min of mixing on a rotator, the beads were washed three times with PBS-T. Proteins were eluted in Laemmli sample buffer and analyzed by SDS-PAGE followed by autoradiography.

HIF-1α [2] = assay: HIF-1α protein levels by immunoblot in transfected 293 cells; assay type: cell-based, human
Procedure: as §1

PHD2 = PHD2 protein levels by immunoblot in transfected 293 cells; assay type: cell-based, human; conditions: co-transfection of OS-9 vector; FIG. 7C
Procedure: 293 or Hep3B cells were seeded onto 24-well plates at 8×10^4 cells per well of a 24-well plate. The following day, the cells were transfected with plasmid DNAs using Fugene-6 (Roche) for 293 and Lipofectamine Plus (Invitrogen) for Hep3B cells. After 24 h, the cells were exposed to 20% or 1% O2 for 24 h. Cells were lysed, and the luciferase activities were determined by multi-well luminescence reader (PerkinElmer), using the Dual-Luciferase Reporter Assay System (Promega). For p2.1 reporter assay, cells were co-transfected with 15 ng of control reporter pSV-Renilla, 135 ng of HIF-1 reporter p2.1, and expression vector encoding HA-OS-9, HIF-1α, or empty vector. Unless indicated otherwise, 200 ng of HIF-1α, 400 ng of HA-OS-9, 1 ng of PHD2, or 1 ng of HIF-1α triple mutant P402A/P564A/N803A (HIF-1α TM) expression vector was used for co-transfection. […]
For in vitro VHL binding assay, preincubated GstA and 5 μl of [^35S]methionine-labeled VHL protein were mixed in a total volume of 300 μl of PBS-T with 1 mM desferrioxamine and incubated at 4° C. for 90 min. […] Beads were washed three times with PBS-T. Proteins were eluted in Laemmli sample buffer, fractionated by SDS-PAGE, and detected by autoradiography. […]

HIF-1α [3] = assay: In vitro interaction (GST pull-down) assay of OS-9 with GST-HIF-1α fusion proteins; assay type: binding, human; conditions: FIG. 2A
Procedure: as §2

[4] = 293 cells, co-transfection of OS-9, FIG. 4B

Chain of HIF-1α (Homo sapiens, UniProt Q16665) (Q16665 531-826): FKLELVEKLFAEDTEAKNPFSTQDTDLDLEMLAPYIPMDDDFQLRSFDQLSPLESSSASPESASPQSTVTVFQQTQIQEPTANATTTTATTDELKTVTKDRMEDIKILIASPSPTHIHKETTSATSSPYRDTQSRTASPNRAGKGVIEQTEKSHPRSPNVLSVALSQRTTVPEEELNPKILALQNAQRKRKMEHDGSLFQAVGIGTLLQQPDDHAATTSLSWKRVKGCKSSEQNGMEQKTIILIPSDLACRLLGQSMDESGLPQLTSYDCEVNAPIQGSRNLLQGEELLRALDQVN

Induction of p2.1 reporter activity by HIF-1α (HIF-1; [4]): significantly inhibited | Reporter gene activity induced by hypoxia and/or HIF-1α expression vector (HIF-1; co-transfection of OS-9 expression vector, Hep3B cells, 20% or 1% O2, FIG. 3A): dramatically inhibited | binding of OS-9 to GST-HIF-1α (531-826) (HIF-1α [1]): dose-dependent manner | binding of OS-9 to GST-HIF-1α (HIF-1α [3]; HIF-1α residues 1-329, 429-608, 531-610, and 786-826): did not bind | binding of OS-9 to GST-HIF-1α (HIF-1α [3]; HIF-1α residues 531-826, 653-826, or 692-826): efficiently bound
B1: OS-9: human OS-9 protein (667-residue isoform), HA-tagged, from expression vector or in vitro-translated (protein)
chain: MAAETLLSSLLGLLLLGLLLPASLTGGVGSLNLEELSEMRYGIEILPLPVMGGQSQSSDVVIVSSKYKQRYECRLPAGAIHFQREREEETPAYQGPGIPELLSPMRDAPCLLKTKDWWTYEFCYGRHIQQYHMEDSEIKGEVLYLGYYQSAFDWDDETAKASKQHRLKRYHSQTYGNGSKCDLNGRPREAEVRFLCDEGAGISGDYIDRVDEPLSCSYVLTIRTPRLCPHPLLRPPPSAAPQAILCHPSLQPEEYMAYVQRQADSKQYGDKIIEELQDLGPQVWSETKSGVAPQKMAGASPTKDDSKDSDFWKMLNEPEDQAPGGEEVPAEEQDPSPEAADSASGAPNDFQNNVQVKVIRSPADLIRFIEELKGGTKKGKPNIGQEQPVDDAAEVPQREPEKERGDPERQREMEEEEDEDEDEDEDEDERQLLGEFEKELEGILLPSDRDRLRSEVKAGMERELENIIQETEKELDPDGLKKESERDRAMLALTSTLNKLIKRLEEKQSPELVKKHKKKRVVPKKPPPSPQPTEEDPEHRVRVRVTKLRLGGPNQDLTVLEMKRENPQLKQIEGLVKELLEREGLTAAGKIEIKIVRPWAEGTEEGARWLTDEDTRNLKEIFFNILVPGAEEAQKERQRQKELESNYRRVWGSPGGEGTGDLDEFDF
modifications: left off: small tags and cut ends
notes: human OS-9 protein (667-residue isoform), HA-tagged, from expression vector or in vitro-translated
reporter gene transcription mediated by HIF-1 heterodimers containing HIF-1α-TM (HIF-1; [4]): neither OS-9 nor PHD2 inhibited | HIF-1α protein levels (HIF-1α [2]; 293 cells co-transfected with HIF-1α and OS-9 expression vector, FIG. 3C): reduced | levels of HIF-1α-TM (P402A/P564A/N803A) (HIF-1α [2]; 293 cells co-transfected with OS-9 expression vector, FIG. 4A): no effect | levels of FLAG-tagged HIF-1α (HIF-1α [2]; 293 cells, increasing amounts of PHD2 expression vector, presence of OS-9, FIG. 6A): dramatically reduced | PHD2 protein levels (PHD2): no effect
